Experimental data reported in patent US6472178.

Columns and labels:
[1] = biological target: T1, rat CNTF receptor on rat superior cervical ganglia (SCG) neurons (rat, UniProt Q08406 23-342); experiment: competition with 125I-rat CNTF on rat SCG neurons
T1 construct: whole, on cells; Native neurons; also called rat receptor
T1 sequence (looked up): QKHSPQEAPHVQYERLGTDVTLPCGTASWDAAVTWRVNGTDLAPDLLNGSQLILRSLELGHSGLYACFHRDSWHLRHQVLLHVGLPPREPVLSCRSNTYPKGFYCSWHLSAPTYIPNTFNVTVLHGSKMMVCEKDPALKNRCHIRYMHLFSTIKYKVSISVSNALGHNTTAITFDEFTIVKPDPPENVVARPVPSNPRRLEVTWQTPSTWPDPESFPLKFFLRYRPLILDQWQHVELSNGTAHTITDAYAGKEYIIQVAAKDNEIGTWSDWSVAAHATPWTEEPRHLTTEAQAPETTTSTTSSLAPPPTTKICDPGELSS
Protocol: Reactions were incubated for 45 min at 0° C. followed by 15 min at room temperature and terminated by the addition of […] of 0.2 M glycine solution. After 15 min, 0.2 ml PBS containing 0.08% gelatin was also added and the mixture was passed through a Superdex-75 column (Pharmacia) to separate the labelled monomeric CNTF from dimeric and other multimeric derivatives. Percentage of incorporation was typically 20%, as determined by thin layer chromatography and the specific activity was typically around 1,000 Ci/mmole. […] Growth medium consisted of Ham's nutrient mixture F12 with 10% heat-inactivated fetal bovine serum (Hyclone), nerve growth factor (NGF) (100 ng/ml), penicillin (50 U/ml) and streptomycin (50 µg/ml). Cultures were maintained at 37° C. in a humidified 95% air/5% CO_2 atmosphere. Ganglion non-neuronal cells were eliminated by treatment with araC (10 µM) on days 1 and 3 of culture. Cultures were fed 3 times/week and were routinely used for binding assays within 2 weeks.
Binding was performed directly on cell monolayers. Cells in culture wells were washed once with assay buffer consisting of phosphate buffered saline (PBS; pH 7.4), 0.1 mM bacitracin, 1 mM PMSF, 1 µg/ml leupeptin, and 1 mg/ml BSA. […] Non-specific binding was determined in the presence of 1,000-fold excess of unlabelled CNTF. […] Data were analyzed using the […] program (ISI, Philadelphia, Pa.).

[2] = biological target: T2, human CNTF receptor α-component on MG87/CNTFR fibroblasts (human, UniProt P26992 23-342); experiment: competition with 125I-rat CNTF on MG87/CNTFR cells
T2 construct: whole, on cells; also called CNTFRα; MG87/huCNTFR
T2 sequence (looked up): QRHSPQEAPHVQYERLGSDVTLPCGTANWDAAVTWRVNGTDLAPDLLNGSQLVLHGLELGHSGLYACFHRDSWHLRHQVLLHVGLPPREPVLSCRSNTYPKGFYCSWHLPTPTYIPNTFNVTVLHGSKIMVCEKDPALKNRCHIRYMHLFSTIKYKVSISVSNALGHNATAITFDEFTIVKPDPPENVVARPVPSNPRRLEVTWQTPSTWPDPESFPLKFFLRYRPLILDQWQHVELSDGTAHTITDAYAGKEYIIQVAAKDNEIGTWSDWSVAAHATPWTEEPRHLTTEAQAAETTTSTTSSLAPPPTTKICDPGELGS

B1: recombinant rat CNTF (ciliary neurotrophic factor) (ligand)
chain: MAFAEQTPLTLHRRDLCSRSIWLARKIRSDLTALMESYVKHQGLNKNINLDSVDGVPVASTDRWSEMTEAELRQENLQAYRTFQGMLTKLLEDQRVHFTPTEGDFHQAIHTLMLQVSAFAYQLEELMVLLEQKIPENEADGMPATVGDGGLFEKKLWGLKVLQELSQWTVRSIHDLRVISSHQMGISALESHYGAKDKQM
notes: also called unlabelled rat CNTF
- IC50 [1]: 0.28 nM
- IC50 [2]: 2.8 nM
